Assay results reported in patent EP1752160A2 (Mannkind Corporation, dated 2007).
Each block holds one binder with its values, some of them ahead of it.

Key:
HLA-A2.1 [1] = molecular target: T1, HLA-A2.1 (human); test: T2 cell HLA-A*0201 stabilisation assay, flow cytometry
T1 construct: also called HLA-A*0201; HLA-A0201

HLA-A2.1 [2] = molecular target: T1, HLA-A2.1; test: HLA-A2 binding assay on T2 cells, flow cytometry
HLA-A2.1 [3] = molecular target: T1, HLA-A2.1; test: T2 cell HLA-A2.1 stabilisation assay, flow cytometry

- binding result (HLA-A2.1 [1]): binds
B1: PSMA663-671 (peptide)
peptide: MMNDQLMFL
notes: 9-mer of prostate specific membrane antigen

- binding result (HLA-A2.1 [2]): binds
B2: tyrosinase207-215 (peptide)
peptide: FLPWHRLFL
notes: Synthetic 9-mer of tyrosinase; also called Tyr 207-215

- binding result (HLA-A2.1 [2]): binds
B3: tyrosinase208-216 (peptide)
peptide: LPWHRLFLL
notes: Synthetic 9-mer of tyrosinase; also called Tyr 208-216

- binding result (HLA-A2.1 [3]): binds
Binder: KASEKIFYV (Synthetic 9-mer of SSX-2) [SSX-2 41-49]
